From article PMC5400778

Biological target: His-tagged BG505 SOSIP.664 trimer with the N185h glycan site removed (HIV (isolate BG505)) (UniProt Q2N0S6)
Assay: SPR; Biacore 3000, 25°C; His-tagged BG505 SOSIP trimers immobilised on the chip by His-tag capture; PGT145 Fab as analyte; kinetic analysis

B1: PGT145 Fab (Fab, V domains shown)
VH: QVQLVQSGAEVKKPGSSVKVSCKASGNSFSNHDVHWVRQATGQGLEWMGWMSHEGDKTGLAQKFQGRVTITRDSGASTVYMELRGLTADDTAIYYCLTGSKHRLRDYFLYNEYGPNYEEWGDYLATLDVWGHGTAVTVSS
VL: EVVITQSPLFLPVTPGEAASLSCKCSHSLQHSTGANYLAWYLQRPGQTPRLLIHLATHRASGVPDRFSGSGSGTDFTLKISRVESDDVGTYYCMQGLHSPWTFGQGTKVEIK
  stoichiometry N: 0.96
